Reference: patent publication US20140256626A1 (priority 2011, published 2014)
Like-named read-outs stand apart in the source and are kept apart here.

What was measured:
[1] = format: physicochemical; conditions: for t1/2 @ pH 7.4: buffer; for Rate of exenatide release: 50 μM conjugate
Description: Release rates were determined to be:

[2] = rat, in vivo, iv
Description: The solution was administered by i.v. injection to cannulated male Sprague Dawley rats at 100 μL/100 g body weight. A single animal was used for a complete time course, repeated in duplicate.
Rat serum samples were thawed on ice, and 200 μL was adjusted to pH ˜5.5 by addition of 5 μL of 2M acetic acid.
Proteins were precipitated from 50 μL of acidified rat serum by addition of 150 μL of cold MeOH containing 40 μg/mL Fmoc-Lys (DNP)OH as an internal standard for volume deviations. The samples were kept on ice for 2 hours and centrifuged at 14,000 rpm for 10 min at 4° C. The supernatant was analyzed on a Shimadzu™ HPLC with a Phenomenex® Jupiter® C18 300A 5 μm column (4.6×150 mm) at 40° C. The mobile phase consisted of H2O/0.1% TFA (Buffer A) and ACN/0.1% TFA (Buffer B) at 1 mL/min. […] Quantitation was performed by comparison of peak areas to standard solutions of mPEG-coumarin after MeOH precipitation in rat serum (Sigma-Aldrich) as above. Any volume deviations were corrected using the peak area of the Fmoc-Lys (DNP)OH internal standard in each sample.
Serum samples were treated with 2 volumes of acetonitrile (ACN) and centrifuged. The supernatant was dried, reconstituted in 1% formic acid and applied to HPLC (below). The sample was eluted by a water-ACN gradient containing 1% formic acid. […] HPLC-MS/MS analyses were carried out on a Sciex™ API-5500 mass spectrometer coupled with a Shimadzu™ HPLC system. The Shimadzu™ HPLC system consisted of two LC-30AD HPLC pumps and a SIL-30AC autosampler with a 100 μL loop installed. The chromatographic separations were achieved on a Jupiter® (Phenomenex®) 5 μm C18, 300 Å, HPLC column, 2.0×150 mm, with mobile phase gradients. The mass spectrometer was operated in positive ESI mode and the resolution setting used was unit for both Q1 and Q3. […] Peak-area integrations were performed using Analyst software (version 1.5.2) from AB Sciex™.

Substance | t1/2 @ pH 7.4 [1] [h] | Rate of exenatide release ([1]; pH 8.5, 100 mM bicine) | Rate of exenatide release ([1]; pH 9.5, 100 mM sodium borate) | Conjugate clearance rate [2] [h⁻¹] | Conjugate clearance t1/2 [2] [h] | Plasma half-life of the conjugate [2] [h]
4-chlorophenyl-SO2: DBCO-Lys(DEAC)-[GL4-400] 40 kDa PEG conjugated to N-[7-azido-1-(4-chlorophenylsulfonyl)-2-heptyloxycarbonyl]-exenatide | 59 | .00248 h⁻¹ | – | – | – | –
CH3—SO2: DBCO-Lys(DEAC)-[GL4-400] 40 kDa PEG conjugated to N-[7-azido-1-(methylsulfonyl)-2-heptyloxycarbonyl]-exenatide | 483 | – | .00301 h⁻¹ | – | – | –
Phenyl-SO2: DBCO-Lys(DEAC)-[GL4-400] 40 kDa PEG conjugated to N-[7-azido-1-(phenylsulfonyl)-2-heptyloxycarbonyl]-exenatide | 133 | – | .00726 h⁻¹ | 0.015 | 46 | 28
